assay: yeast display, Sf9 membrane polyspecificity reagent, FACS + sequencing; frameworks hold sequencing errors
Method in brief: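 In a synthetic yeast display library (Saccharomyces cerevisiae BJ5465), nanobody expression was induced with galactose for 36–48 hours. FACS gates were set low and high (top ~1%) using anti-HA fluorescence for expression and streptavidin fluorescence for binding of the Sf9 membrane reagent. Each polyreactivity label is drawn from the gate of origin.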

| Sequence | polyreactivity (PSR sort gate) |
| --- | --- |
| QVKLVESGGGLVQAGGSLRLSCAASGFIFRGYAMGWYRQAPGKERELVAAINYSGGSTYYADSVKGRFTISRDYAKNTVYLQMNSAKPEYTAVYYCNALGLRYYEYDYWGQGTQVNVSS | low polyreactivity |
| QVKLVESGGGLVQAGGSLRLSCAASGFIFSKNAMGWYRQAPGKERELVAAISGRGGTTYYADSVKGRFTISRDNAKNTVYLQMNSLIPEDTAVYYCATDNSSHPYDYWGQGTQVTVSS | high polyreactivity |
| QVKLVESGGGLVQAGGSLRLSCAASGFTFDKYAMGWSRPEPGKERELVATISRRGGSTYYADSVKGRFTISRDNAKNTVYLQMNSLKPEDTAVYYCAKVRYYYSPYREFDYCGQGTQVTVSS | high polyreactivity |
| QVKLVESGGGLVQAGGSLRLSCAASGRIFNWYAMGWYRQAPGKERELVARISSGDITSYADSVKGRFTISRDNAKNTVYLQMNSLKPEDTALYYCNDDGFFLNVSPYDYWGQGTQVTVSS | low polyreactivity |
| QVKLVESGGGLVQAGGSLRLSCAASGRILGYYAMGWYRPAPGKERELVAAINRGGRTYYADSVKGRFTISRDNAKNTVYLEMYSLKPEDTAVYYCAAVLYNQWALVYWFGYNYWGQGTQVSVSS | high polyreactivity |
| QVKLVESGGGLVQAGGSLRLSCAASGSIFSMYTMGWYRQAPGKARELVAAIDRSGGSTYYADSVKGRFTISRDNAKNTVYLQMNSLKPEDTAVYYCATDSVYIYDPYWSSIIEYDYWGQGTQVTVSS | low polyreactivity |
| QVKLVESGGGLVQAGGSLRLSCAASGSISLYYAMGWYRQAPGKERELVAAISDSGGDTYYADSVKGRFTISRDNAKITVYLQMNSLKPADTAVYYCATDTAYWLWVYALLEYWGQGTQVTVSS | low polyreactivity |
| QVKLVESGGGLVQAGGSLRLSCAASGSTFAGTAMGWYRQAPGKEREMVAAISWNTGSTYADSVKGRFTISRDNAKNTVYLQMNSLKPEDTAVYYCAADRSHAYYRKNRVDYWGQGTQVTVSS | low polyreactivity |
| QVKLVESGGGLVQAGGSLRLSCAASGSTFPRYAMGWYRQAPGKEREFVAVIWSGGSTYYADSVKGRFTISRDNAKNTVYFQMNSLIPEDTAVYYCAAEYHTLSKYSGYATHDYWGQGTQVTVSS | low polyreactivity |
| QVKLVESGGGLVQAGGSLRLSCAASGSTFYAYVMGWYRQAPGKARELVAAISKGGGSTYYADSVKGRFTISRDNAKNTVYLQMNSLKPEDTAVYYSAAYASYSNYRKYNYWGQGTQVTVSS | high polyreactivity |
| QVKLVESGGGLVQAGGSLRLSCAASGSTFYHNAIGWYRQAPGKERELVARITRGGSTDYADSVKGRFTISRDNAKNTVYLQMNSLKPEDTEVYYCAADIGHFERFYWGQGTQVTVSS | low polyreactivity |
| QVKLVESGGGLVQAGGSLRLSCAASGSTSRDNAMGWYRQAPGKERELVGAITVIDGTTYYADSVKGRFTISRDNAKNTVYLQMNSLKPEDTAVYYCAADTIWYEYYYWGQGTQVTLSS | low polyreactivity |
| QVKLVESGGGLVQAGGSLRLSCAASGSTYWQYSMGWYRHAPGKEREFVAAISSRGGSTYYADSVKGRFTISRDNAKNTVYLQMNSLKPEDTAVYYFAAKNYFAFIRTYRYVHRPTYYYWGQGTQVTVSS | high polyreactivity |
| QVKLVESGGGLVQAGGSLRLSCADSGSIFYNNAMGWYRQAPGKERELVATIRRSGGSTYYADSVKGRFTISRDNAKNTVYLQMISLKPEDTAVDYCNAPPYLALVLIDYDYWGQGTQVTVSS | low polyreactivity |
| QVKLVESGGGLVQAGGSLRLSSAASGSTFDSNAMGWYRQEPGKERELVAAITRGGSTNYADSVKGRFTISRDNAKNTVYLQMNSLKPEDTAVYYCAAASETLGYATYGSGYDYWGQGTQVTVSS | low polyreactivity |
| QVKLVESGGGLVQAGGSLRLTCAASGRTFARYAMGWSRQEPGKERELVAAISRRGTSTYYADSVKGRFTISRDNAKNTVYLQMNSLKPEDTAVYYCAVDPYLGHYDYWGQGTQVTVSS | high polyreactivity |
| QVKLVESGGGLVQSGGSLRLSCAASGSILDVNAMGWYRQAPGKERELVAAISDSGGSTYYADSVKGRFTISRDNAKNTVYLQMNSLKPEDTAVYYCATAYYYHGGYYYPYDDYWGQGTQVTVSS | low polyreactivity |
| QVKLVESGGRLVQAGGSLRLSCAASGFTNYAMGWNRQAPGKERELVAAITLSDASTYYADSVKGRFTISRDNAKNTVYLQMNSLKPEDTAVDYCAAKGGRSKSGARALGYWGQGTHVTVSS | low polyreactivity |
| QVKLVESVGGLVQAGGSLRLTCAASGIIFPVYAMGRYRQAPGKERQLVSAITYSGDRTYYADSVKGRFTISSDNAKNTVYLQMHSLKPEDTAVYYCNARFGVWPYFYNEDDYWGQGTQVTVSS | low polyreactivity |
| QVKRVESGGGLVQAGGSLRLSCAASGSIFDEYAMGWYIQAPGKERELVAAITRTGGRTYYADSVKGRFTISRENAKNSVYLQMNSLIPEDTAVYFCNAPSRTRYDYWGQGTQVTVSS | low polyreactivity |
| QVLLQEIGGGLVQAGGSLRLCCAASGYISGDQFMGWYRQAPGKEPECVAGIGNGTNSNYADSVKGRFTTSRDNAKNTVYLQMNILKPEDTAVYYCAADPSDGSTLAFWGQGTQVTVSS | high polyreactivity |
| QVLLQESGGCLVQAGGSMRLSCAASGYISSWYPMGWYRQAPGKEREFVATIAPGATTYYADSVKGRFTISRDYAKTTVYLQMNSLKPEDTAVSYCAAGPENNDFYSYWGQGTQVTVSR | low polyreactivity |

| Sequence | polyreactivity (PSR sort gate) |
| --- | --- |
| QVLLQESGGGLVQAGGSLRLCCAASGYISGDQIMGWYRQAPGKDREFVAGIGNGTNTNYADSVKGRFTTSRDNAKNTVYLQMNSLNPEDTAVYYCPADPSDGSTLAYWGQGTQVTVSS | high polyreactivity |
| QVLLQESGGGLVQAGGSLRLGCAASGTISHAYYMGRYHQAPGKEREFVAAITYGTNTYYADSVKGRFTISRDNAKNTVYLQMNSLKPEDTAVYYCSATAGYNGAHDYWGQGTQVTVSS | low polyreactivity |
| QVLLQESGGGLVQAGGSLRLSCAASGNIFSAGGMGWYRQAPVNERELVAGIGTGTSTNYADSVKGRFTISRDNSKNTVYLQMNSMKPEDTAVYYCAAAYYSGLSHWYWGQGTQVTVSS | low polyreactivity |
| QVLLQETGGGLVQAGGSLSLSCAASGTISTDIRMGWYRLAPGKEREFVASIDGCSTTYYADSVKGRFTFSRDNAKNTVYLQMNRLIPEDTSMYYCAAREATEFYLYYWGQGTQVTVSS | low polyreactivity |
| QVLLVESGGGIVQAGGSLRLSCSASGIIFPCYAMGWYRQAPGKERELLAAISSSGSSTYYADSVMGRFTITRDNAKNTVYLQMNSLKPEDTAVYYCAAVRYGMRRMDYWGQGTQVTVSS | high polyreactivity |
| QVLLVESGGGLGQAGGSLRLSCAASGAIFVGYAMGWYRQAPGKEREMVAAISKSGGSTYYADSVKGRFTISRDNAKNTVYLQMKSLKPDDTAVYYCAAYPVRLVYSQHRYLYDYWGQGTQVTVSS | high polyreactivity |
| QVLLVESGGGLVQAGGSLRLICDDSGFIFTYYAMGLYRQAPVTEREFVAAIRASGGSTYYSYSVKGRFTISRDKAQNTVYLQMNSLKPEETAVYYCAARYRQRLRSTSYDYWGQGTQVTVSS | high polyreactivity |
| QVLLVESGGGLVQAGGSLRLSCAASGRTFVTNAMGWYTQAPGKERELVAGITRRGGSTYYADSVKGRFTISRDNAKNTVYLQMNSLKPEDTAVYYCARRGDTSTRYYYWGQGTQVTVSS | high polyreactivity |
| QVLLVESGGGLVQAGGSLRLSCAASGRTSFQYAMGWYSQAPGTDRELVAALSWSGGATVYADSVKGRFTISRDNAKNTDYLQMNSLKPEDTAVYYCAKRRRLDQNTCYGLDYWGQGTQGTVSS | low polyreactivity |
| QVLLVESGGGLVQAGGSLRLSCAASGSTFFFNAMGSSRQAPGKEWELVATISRDGSTNYADSVKGRFTISRDNAKNTVYLQMNSLKPEDTAVYYCAAGWGWPYHQYDYWGQGTQVTVSS | low polyreactivity |
| QVLLVESGGGLVQAGGSLRLSCAASGSTFSQYAMGWNRQAPGKERELVAAIDSGSNTKYADSVKGRFTISRDHAKNTVYLQMNSLKPEDTAVYYCAADDSYRSIGGDYWGQGTQVTVSS | low polyreactivity |
| QVLLVESGGGLVQAGGSLRLSWAASGSIFTIYAMGWYRKAPGQERELVAAMNRGDGTNYADSVKGRFTISRDKAKNTVYLQMKSLKPEDTPVYYCAAEYYTEYQKWFDYWGQGTQVTLSS | high polyreactivity |
| QVLLVESGGGLVQEGGSLRLSCAASGIIFQFYAMGWYRQAPGKERELVAAISRSGGITHYADSVKGRFTISRDNAKNTVYLQMNSLKPEDTAVYYCAAVRQAYPRLDYWGQGTQVTVSS | high polyreactivity |
| QVLLVESGGGLVQSGRSLRLSCAASGLIFSRYAMGWYRPAPGKERELVAAITSGTSTYYADSVKGRFTISRDNAKNTVYLQLNSLIPEDTAVYYCAARWLTFNARYYPYYYWGQGTQVTVSS | high polyreactivity |
| QVLLVESGGVLVQAGGSLRLSCAASGSTFWSYAMGWYRQAPGKERELVAAISWSGDSTYYADSVKGRFTISRDNAKNTVYLQMNSLKPEDTAVYYCAADYVGGSYEYEYWGQGTQVTVSS | low polyreactivity |
| QVLLVESGPGLVQAGGSLRLSCAASGSTLYYYAMGWYRQAPGKERELVAAITWSGDSTYYADSVKGRFTISRYNAKNTVYLQMNSLIPEDTAVYYCASEVESYDQYYTYDYWGQGTQVTVSS | high polyreactivity |
| QVLLVVSGGGLVQAGGSLRLSCAASGFTFDTYAMGWNRQAPGKERELVAVITRGGSTNYADSVNGRFTISRDNAKNTVYLQMNSLKPEDTALYFCAAEHRNTYTFARDYYWGQGTQVTVSS | high polyreactivity |
| QVLQQESCGLVQAGCSLRMSCAASGSISTALSMGWYRQAPGKERELVATISDGASTNYADSVKGRFTISRVNAKNTVYLQMNSLKPEDTAVYYFARYYFGNFGWGQGTQVTVSS | high polyreactivity |
| QVLRVESGGGLVQAGGSLRLSCSASGFIFRPNAMGWYRQAPGKERELVARITYRGGSTYYADSVKGRFTISRDNAKKTVYLQMNSLKPEDTEVYYCAARAVTYAGYTYNYWGQGSQVTVSS | high polyreactivity |
| QVLVVESGGCLVQAVGSLRLSCAAYGITCSRNALGWYRLAAGKERELVATITSGGSTNYADSVKGRFTISRDNAKNTVYLQMMSLKPEDPAVYFCNAVWNTFISGRSYDYWGQVTQVTVSS | low polyreactivity |
| QVNHVESGGGLVQAGGSLRLICAASGSTYNNAMGWYRQAPGKERELVAAIRWSGGSTYYADSVKGRFTISRDNANYTVYLQMNSLNPEDTAVYYCASAYRWSRKRYNDYDYWGQGSQVTVSS | high polyreactivity |

Source: the nanobody polyreactivity screen of Harvey et al. (2022)
